Measurements reported in the DeepSol protein solubility set.

Assay: soluble on expression in E. coli; label from the status in PepcDB or PDB records

Sequence	soluble on expression in E. coli
MSLDVSDDADRLQTLLYSSYSADVVRQLERPLLDDGVPLMRMAASAVARVTLSLLDDEDLDVEDARVTVLAGAGDNGGDGLYAGAELAREGAQVTAVAVGRSLHEDAFREFVRAGGRVLVLDPAADIPGCTSGFSAGEAGERLQAAVECARGAHVVLDAMTGIGVAGALRGVAGTLASSLGMDGVLPDKPALPNNDPSADLPLVVAVDAPSGVGVDDGSLPGPYIPADVTVTFGAMKPCAMVPPASYACGRITLVDFGFDVDDAVPFAEMTDGDFVADSVRLPSLADGKYSRGVVGLVTGSARYPGAAVLSARAAACANVGMVRYLGPQRAQDMILAVLPEAVLGKGRVQSWVVGSGVPAEGDVASGDDMQRATIAALLDHYALEDGDGSRNERAEGMPPIVVDAGALDLLPCHVVPQVVITPHAGELAALLNRLDADMADVVSRQWVEARPLRAALRAHELTGATVLLKGAVTIVVGADGDGNTRIILSGRAPAWMATAGSGDVLAGVLGALLAQQDDMLSDDPALVPEVAAAAAYMHGLAGAMASGSEQRGWHRPHLYGHAGKTPASAIGHPIVAGDVVAAVPRAFGELLREGHHHHHH	soluble
MSKLIKGIAASDGVAIAKAYLLVEPDLTFDKNEKVTDVEGEVAKFNSAIEASKVELTKIRNNAEVQLGADKAAIFDAHLLVLDDPELIQPIQDKIKNENANAATALTDVTTQFVTIFESMDNEYMKERAADIRDVSKRVLSHILGVELPNPSMIDESVVIVGNDLTPSDTAQLNKEFVQGFATNIGGRTSASAIMSRSLEIPAIVGTKSITQEVKQGDMIIVDGLNGDVIVNPTEDELIAYQDKRERYFADKKELQKLRDADTVTVDGVHAELAANIGTPNDLPGVIENGAQGIGLYRTEFLYMGRDQMPTEEEQFEAYKEVLEAMGGKRVVVRTLDIGGDKELSYLNLPEEMNPFLGYRAIRLSLAQQDIFRPQLRALLRASVYGKLNIMFPMVATINEFREAKAILLEEKENLKNEGHDISDDIELGIMVEIPATAALADVFAKEVDFFSIGTNDLIQYTLAADRMSERVSYLYQPYNPSILRLVKQVIEASHKEGKWTGMCGEMAGDETAIPLLLGLGLDEFSMSATSILKARRQINGLSKNEMTELANRAVDCATQEEVIELVNNYVK	soluble
MEGGSITPGEDKPEIQSPIPPNQIFILSGQSNMAGRGGVFKDHHNNRWVWDKILPPECAPNSSILRLSADLRWEEAHEPLHVDIDTGKVCGVGPGMAFANAVKNRLETDSAVIGLVPCASGGTAIKEWERGSHLYERMVKRTEESRKCGGEIKAVLWYQGESDVLDIHDAESYGNNMDRLIKNLRHDLNLPSLPIIQVAIASGGGYIDKVREAQLGLKLSNVVCVDAKGLPLKSDNLHLTTEAQVQLGLSLAQAYLSNFC	soluble
QSLVKDFLSGVFMLIEDQYGVGDTIDVGDVVGTVEDVSLRLTTLRDINGTQWFVRNGEILRVGNFSQEYAVAIINVPIALDEKASDAIALIEKSVADEAQLQEVADVLLDDPVVDGVNSVGLDHMVIRTRVTTLPDQQWFIERKMRARILTDLQRNGIDTPYPEGIGAYRRLDDEE	not soluble
MGSDKIHHHHHHMRIGCVLARKGKMMMNGELAGFTIPRLGMGTMALAIEGRPDRDTAIRTIHAGLDAGVRYLDTAWSYYLPSEPGTGTAKDLGYGEKLVRDALASWNGPRDEVLVATKTGYRRTMEIPAFVAPVSDSPESDTQGRDSEGCSRRPGGERQHLQAAGSQYGWMADSRPETMIRDAKESALHLGVDTLDLLYSHGPDPEVAYEDQVGALKQLLNEGVIRYAGISRVDNAQIDIAREILGDKLIAVQNQFSPSHPDPEHTMEHCAELGLAFVCWSPLGGFLDAFDQRAYDPFRTVAGNHGCSYQRVVLAWELSRYERLFTIPSARNPQEINDSFAATELTLTQDELAMLNASVDARRG	not soluble
MNNFKLHTPTRILFGKGAIVDLRDQIPQDARVLITYGGGSVKKTGVLAQVQEALKGLDVREFGGIEPNPSYETLMKAVQLVRDENITFLLAVGGGSVLDGTKFIAAAAQYTDGVDPWHILETGGTEIRSAIPMGSVLTLPATGSESNAGAVISRKTTGDKQAFHSSFVQPVFAVLDPVYTYTLPPRQVANGVVDAFVHTVEQYVTYPVNGKIQDRFAEGILLTLIEEGPKALQEPENYDVRANVMWAATQALNGLIGAGVPQDWATHMLGHELTAMHGLDHAQTLAIVLPALWNEKRDVKRAKLLQYAERVWNITDGSDDERIDAAIAATRRFFEQMGVPTHLSDYGLDGSTIPALLAKLEAHGCINLGENQDITLDVSRRIYEAAR	not soluble
GMSDIKKLGSSWIINWFFGFNQIPTNEDSSIYMKSVLTCAKADGVISPEEKDWALGFCASWGVADWVIEDLKTYEADEALEEVIARSPQVSMAQRDILLSAIWVSAADGELHEKEKAKIRKMATILGIKEEIVDQLEQLYYYEAALRQKRLNLLYPQKSPY	soluble
MGSDKIHHHHHHMKEVKIGKDKISVALCTYNGEKFIREQLRSIVGQTILPWQIVVCDDQSTDRTMDIVREFADDYPSIRWMIIRNEVRLGVRRNFEKAIALAEGDYIAPSDQDDIWERNKLEILLHIMREKKVSLVHSNIRYVDVKGREMTERLDFPCSVPLATYLYGLNNVMGCTCLFCASLKDILFPFPIHYYYHDQWLAIMAYHNGGIYLCDHKLVRYRQHADNVVSAICGGGKREGEELGLSYFVGKAEDIYLLLHRRKQIKYSQKDWWRLAWLYVSNRLGLAWLKFKLL	not soluble
MSLYKDDSLTLHTDLYQINMMQVYFEQGIHNRHAVFEVYFRKEPFNNGYAVFAGLQRMVEYLEQFQFSETDLAYLEELGYPENFLTYLKELRLELTIRSAKEGDLVFANEPIVQVEGPLGQCQLVETALLNIVNFQTLIATKAARIRSVIEDEPLLEFGTRRAQELDAAIWGTRAAMIGGADATSNVRAGKRFDIPVSGTHAHALVQAYGNDYDAFMAYAKTHKDCVFLVDTYDTLKVGVPTAIRVAKEMGDKINFLGVRLDSGDLAYLSKTVRQQLDDAGFTEAKIYASNDLDENTILNLKMQKAKIDVWGVGTKLITAYDQPALGAVYKIVSIEQEDGSMRDTIKLSNNAEKVSTPGKKQVWRITSREKGKSEGDYITFTDINVNELTEIEMFHPTYTYIKKTVKEFDAIPLLVDIFVKGELVYQLPTLAEIKAYAKKEFDKLWDEYKRVLNPQDYPVDLARDVWQNKMALIDNIRKDAYGKSEEGHHHHHH	soluble
SDALSWGHGPRLFEVFLEPTCPFSVKAFFKLDDLLAQAGEDNVTVRIRLQSQPWHMFSGVIVRCILAAATLEGGKESAKAVMTAVASHREEFEFEHHAGGPNLDATPNDIIARIERYSGLALAEAFANPELEHAVKWHTKYARQNGIHVSPTFMINGLVQPGMSSGDPVSKWVSDIG	not soluble
MGSDKIHHHHHHMTTLLRTRRFPPLNALRAFEAAARHLNFRLAADELGVTQGAVAQQVRHLEDVVAVQLFRRLPRGLALTREGLEYFSSVQRALQIISDATDALGERPTVLAVSTTPSFASKWLIPRLADFGRLHPDIEVRVIADERLASFRADGVDIAIRLSKPPFPAGLAAELLAPLDIFAVASPKLLDSGPPIRTPADLSTHALLHDAHDLWPEFIEKLGGKGRADPTKGPRFSQSLLAIDAAVAGQGIALTSEPLVERDIAEGRLRRVFDFSFPMSLGFYVVFPQANAHSEALQAMRRWLFAQYGKA	not soluble
MGSDKIHHHHHHMTHLKIFLLLIVCALSVLDGKAQTGIALTDELNGKRIGVIGDSYVRNHKEPFENTWHYKFAKKHGMEYFNYGKNGNSIAYSSPRWGKAMYLRYAEMADSLDYVIVIGGHNDAFKLDSIGGIDNFKDKMEILCKGLVEKYPTAKIFFFTRWNCKNFKGSDSEKVVDAMIEVCGNYSIPIFDCARKGSIYADNDTFRRIYFQKSKNNTDTAHLNSKGHDRFLKVAESFLLQY	not soluble
MGSDKIHHHHHHMNREFYGKIIISGEIEAVTGLHIGSQREVSEIGGIDNPVIKDPHTGLPYIPGSSLKGRLRSLFEIYVNTRLDELKSKYSSLSNYSKGSCRDVGKENCGKFFNKKLNNVWIHVCSTYEMARNCPVCRLYGSSGKESNFPSRLIVRDAFLTEEWKKKWENGEAITEAKIEVGIDRVTSQANPRTTERVVAGTRFDFEIIYTIEDLKEWKDDLRNLLTSMLLLEDSYLGGSGSRGYGKVRFHVKGLELRPLEYYRTGDEGKIVKKTEYERVEDLLKNFETITSEFDRRVGGIEG	not soluble
MSQNHVIELANTLKQRPIVCDYTGGRFRLTNEGLTYIGIDRDGTPLPPRWICAPLHIVAKTRDAQSGEWGRLLEWQDDDGITHQWAMPLALLQGDASDVRRELARLGLSISPHRTARDLLASYLQVFPVDARARCVDKLGWHGDVFVTASQCIGQSTEKIVFQNTNAIEPAMSIKGSVDKWRDSIGRLASGNSRLVFAISVALAPVLAKIVGEDSGGFHFRGASSSGKSTALSLAASVWGNPQSYCRLWRSTTNGLEGLAALHNDGLLILDELSQMDPREAGEAAYLLANGQGKTRASRTGTVRQSSRWSLFFLSAGEESLTALMAKSGQRINAGQEIRLADIEADAGCQMGIFETIHDQLSPASMALSLKKYSSGYHGAIGRAWLNQVVANRQTISRFITDTIQSFVDIVIQPDATGQIIRVARRFALVAAAGELASQFGLTGWKKGESFHAAKTCFIAWQDAFGVDGHREDRAIMAQVRAFFESHGASRFDNVNSPNNDKILNRAGFYHTDGEGFRIYMVLTETYKNELCKGFDQRTVTRVLLQAGWLKPASDGKLEHHHHHH	not soluble
MKSARKNKNIIIDQNEFGILSLIKEGLLGTCTHLMNEKEVNEIIKSGKFKGESFPYPLSFAPKNAEEALNDIKSGDRIDLMLDEKVVGHIDFKSQFKNNKNFSDIFSPNTCSLEDMGTTCISGKIEIYNSQIEKIKENFQQIKNNLNAQKITAIVSSFDPLHRAHERMFRWTIDKADLVVIFLVESFDVNGFEFELKEAYLKKFIQNYLPPDRIFIFPLKNINIFHAHLNPGLESIIAKSLGCTKLVVGQNHTGLGMFYDDNQPKTILDDFSKDYGIEVIVLPEFVFCDQCRMIVSTRSCPHGCHHHLHYNSQSLKDLLRAGIIPPAIFIRKEVSSVILTSLFPNRLKNMQKIYNELFPTDGILEYKNDEEFYQKLLEIHQMSYMV	not soluble
MGSDKIHHHHHHMAVKRAYYGNDGDRDYFERVFQSANINFLIGSGASLPAINVLGTIENDLQQLINDEKEDEYFNMAAGFLSAVWLPHEYILDRGNDVAFPPPVISNVDYTRKNYDAFISSLEKILTRRRTGLLPRRINVFTTNYDLFIEEAATRNNNILFNDGFNKRMNVWGDEEFDAGSFNYSVSATGNLYNYKVELPTVNLIKLHGSFSWKHYKGRIIYNIGEKKPLNFATPAEMKKWVLAHALILPRKEKFKETLLQNVYYDLLRTYSNELDKEATLLVVFGFSFADEHLEMLTKKALRNATLKLLIFAFNEASVGGFMENFRDYSNVEIIYRPGGNVDFPVMNNIITCYLGGAR	not soluble
MGSDKIHHHHHHMATNTGHSNPKEALTFMNAPQLDIHQPRIAAFFDLDKTIIATSSALAYGREFMHSGLITPAEALQMSMAKATYMFSGYSSEQMDHTKNQLAHLITGWSEEQVREIANDTLQSVVAPAIYAEARDLIHMHQETGHDVVIISASARILVEAIAAELGVDQVVATELTVVDGKFTGEVPFYCKGAAKAQAILDLTDKRGYQLDRSFAYSDSITDLPMLEAVGNPRAVNPDRALKKVALDRDWEIHTFKNPVALFSKPTKRDLQISTGVAAGVAAVVGSVMWWKSLNGRSDRLRLSCTRDPGTQM	not soluble
IKGSTDMDHSGFIQKFIALYGGLNKHTLHHLSEIYSYDVQFIDAVHEINGIDELTDYFTHLYTNLIECKFTIHHVIEDINLTQGEATLFWTMNYKHPKIGKGKSISVEGVSHIKFNDKVFYHRDFLDMGQMVYEHLPLIGPMVKFIKKRVQA	soluble
IVMADWLKIRGTLKSWTKLWCVLKPGVLLIYKTQKNGQWVGTVLLNACEIIERPSKKDGFCFKLFHPLEQSIWAVKGPKGEAVGSITQPLPSSYLIIRATSESDGRCWMDALELALK	soluble
